assay: soluble on expression in E. coli; label from the status in PepcDB or PDB records

Question: For “MSVNPFFDPRTLGEMVFGDNGRLDREYVPISENNDDLSDCRNEIVDTHEKFSVNLNVPDVKPEELKINLEGRKLSIKAEHQEIENDNISTTQTYSKSIVLPEDVDVTHLSSNLSEDGKLLIEVPKVEAKKTNFFGFLSKFRCMPESQ”, which “soluble on expression in E. coli” value is on record?
Answer: not soluble

Question: Which “soluble on expression in E. coli” value does the source give for “MDRSERLIQLISEEGIDAFLIMNIENSARASSVYFSGFTGSFSIILISENTRLLITDSRYTVQAKQETDFEVREVKGGDFIDVLKKTVNDLKIKTIALEEERVSLSLFRRISSAFGDRKFIGIDDEVKQMRMVKDEGEIEKIKQAIEISERAFLETVQQIRAGMTEKEIAALLEYTMRKEGAEGVAFDTIVASGCRSALPHGKASDKVVERGDVIVIDFGATYENYCADITRVVSIGEPSDEVKEVHSIVLEAQERALKIAKAGVTGKLLDSVAREFIREKGYGEFFGHSLGHGIGLEVHEGPAISFRNDSPLPENVVFTVEPGIYLEGKFGIRIEEDVVLKEQGCEILTTLPRSIFVV” here?
Answer: soluble

Question: With “AVAQQLRAESDFEQLPDDVAISANIADIEEKRGFTSHFVFVIEVKTKGGSKYLIYRRYRQFHALQSKLEERFGPDSKSSALACTLPTLPAKVYVGVKQEIAEMRIPALNAYMKSLLSLPVWVLMDEDVRIFFYQSPYDSEQVP” as the sequence, how does the “soluble on expression in E. coli” value read?
Answer: soluble

Question: Which “soluble on expression in E. coli” value does the source give for “MKVLNELRQFYPLDELLRAAEIPRSTFYYHLKALSKPDKYADVKKRIGEIYHENRGRYGYRRVTLSLHREGKQINHKAVQRLMGTLSLKAAIKVKRYRSYRGEVGQTAPNVLQRDFKATRPNEKWVTDVTEFAVNGRKLYLSPVIDLFNNEVISYSLSERPVMNMVENMLDQAFKKLNPHEHPVLHSDQGWQYRMRRYQNILKEHGIKQSMSRKGNCLDNAVVECFFGTLKSECFYLDEFSNISELKDAVTEYIEYYNSRRISLKLKGLTPIEYRNQTYMPRV” here?
Answer: not soluble

Question: With “DESSKNGLMDMVSQGLNAESSPLTELLTSQLPVSTEQAAGGSSALIALAQSQLSQQNSTELQSLIPGLSNLKGAQSLLGNIESLSAVQSAFN” as the sequence, how does the “soluble on expression in E. coli” value read?
Answer: not soluble

Question: Which “soluble on expression in E. coli” value does the source give for “MKKVAIIGAGIVGATAAYYLSKEKDIAVTVFDDGFGQATKAAAGIICPWFSKRRHKAWYRLARLGADFYQTLLSDLKRDACKVDFYEQSGAFLLKNKAESLDELFEIGQKRKSQSPLIGHLEIQKRADLTGLLADLVGFDRCIYASGAARVEGASLTEALLNASHAKMVNKKVGLQVLSDGNYRVNGKKYTAVLLACGAWLPQILEPLGYKIDIRPQKGQLRDYFFNSEDTEKFPVIMPEGEVDIIPFAHGKVSVGASHENDHGFDLQIDNSVLDKMEKEAQTYFPKLKEATSKNERVGTRAYTRDFAPFFGRVTGLANVYAASGLGSSGLTTGPLIGNQLVKMLLDKELDIQASDYSPDKYIVKNSLEHHHHHH” here?
Answer: not soluble

Question: Which “soluble on expression in E. coli” value does the source give for “MAGDPMKQFAQTYYLLQFIICLICLSISCGEGGNDNYSETNDERNKEPEITVSPITNLEAKSTQIANQLLITWQNPNTPNLLGVELSYLQKNGGTHNGKQIIQGAAGKTGNYTLQLPQYGTYEISAIAIDNYGHRSSAVTVIATPAETTVPFSWATLADSCTYVLIEQFMNKSKGTFWSTPKDMSDESTYIYWQQAHAMDVVIYSYKRIKDTNKQLAATYRTYFERWYANHANNYHRNPSDETGFLNDFTDDMCWICLTLIHLSEATGDEKFAQTAKIVYDKYIITRAWTDDKGTGLPWNTTQNDRNACTNSPGCLVAAKLYQRYEDGNYLSDAKKLYEYVVNNSYNADGRVEEPPLTYTQGTFGEACRQLYHITQESKYMDKAKQVINYAATSDRCLRNGILRDEGSSMDQSIFKSVYIPYAVNLALDEASSSIGKHLITFLKNNAETLRMNLNHAAYPAMYCNYWWGEMWKSSEPASMGAQVSGASLMEGIARLEAAALEHHHHHH” here?
Answer: not soluble

Question: For “STSCVAEEPIKKIAIFGGTHGNELTGVFLVTHWLKNGAEVHRAGLEVKPFITNPRAVEKCTRYIDCDLNRVFDLENLSKEMSEDLPYEVRRAQEINHLFGPKNSDDAYDVVFDLHNTTSNMGCTLILEDSRNDFLIQMFHYIKTCMAPLPCSVYLIEHPSLKYATTRSIAKYPVGIEVGPQPHGVLRADILDQMRRMLKHALDFIQRFNEGKEFPPCAIDVYKIMEKVDYPRNESGDVAAVIHPNLQDQDWKPLHPGDPVFVSLDGKVIPLGGDCTVYPVFVNEAAYYEKKEAFAKTTKLTLNAKSIRSTLH”, which “soluble on expression in E. coli” value is on record?
Answer: not soluble

Question: With “MTKKQKEILFCDYFEEWVEVYKVGAIAKITLAKYYNAAKQLRDLCPKLFISDFDRREYQRIINVYAETHEKQTVKDFHHHVKACIKDLFHDGLIDKDPTYRVVIKGAEPTRAKKRKFLQKEELSKLLQSLDMSQIGFGWFVMLVAKTGMRYAEALAITPADFDWTAQTISINKTWDYKYNKGFAKTKTLSSVRTIKIDWQIVGQFKPLIKDFPEDEPIFVEKFGDGTYKRQFNSTINNFLAVKCN” as the sequence, how does the “soluble on expression in E. coli” value read?
Answer: not soluble

Question: With “MVDGQPSLQQVLERVDEWMAKEGLLDPNVKSIFVTCGDWDLKVMLPGQCQYLGLPVADYFKQWINLKKAYSFAMGCWPKNGLLDMNKGLSLQHIGRPHSGIDDCKNIANIMKTLAYRGFIFKQTSKPF” as the sequence, how does the “soluble on expression in E. coli” value read?
Answer: not soluble

Question: With “MNISPKAIKVRNIWIGGTEPCICAPVVGEDDRKVLREAEEVCRKQPDLLEWRADFFRAIDDQERVLATANGLRNIAGEIPILFTIRSEREGGQPIPLNEAEVRRLIEAICRSGAIDLVDYELAYGERIADVRRMTEECSVWLVVSRHYFDGTPRKETLLADMRQAERYGADIAKVAVMPKSPEDVLVLLQATEEARRELAIPLITMAMGGLGAITRLAGWLFGSAVTFAVGNQSSAPGQIPIDDVRTVLSILQTYSR” as the sequence, how does the “soluble on expression in E. coli” value read?
Answer: soluble

Question: Which “soluble on expression in E. coli” value does the source give for “GAMATGSRIGGGIDVPVPRHSVGVVIGRSGEMIKKIQNDAGVRIQFKQDDGTGPEKIAHIMGPPDRCEHAARIINDLLQSLRSGPPGPPGGPGMPPGGRGRGRGQG” here?
Answer: soluble

Question: For “MGGVKKNALLDYVFTKALENLTALFTQLNITAVKEIIRPLETGHEAYFVLPIDARTLKVLMIELEESIPLARLWDLDVFNAKGNLLSRTDFDLSPRTCLVCGENAKICARTHKHEIDEIVDKIQSLAQNHDFAEHIGEQVYLALIQEARLSPKPGLVDAINNGSHKDMNLHTFEQSAISLKPFFTQFVLKGMMTAHLSENQILSEIRPLGLLAEKAMFKVTDGVNTHKGAIFSFGLVCTAIGRLLAQKSLVQSAVDFDVKLICSLVAQFTQGLTDELKNYPEHLPSTAGVRLFQKYGLTGVRGEAENGFNLIQTLLPQFDEYHQLEWEHRLLILLLNLMAINSDTNVVHRGGLAGLYFIQQTAQDLLTDQHLVTDKTALTQALMKFDTACIERNLSSGGSADLLALTIFFLSFRGN”, which “soluble on expression in E. coli” value is on record?
Answer: not soluble

Question: With “MNTVIDFSAGVPPAVEVKAAGHIGVMRYISPPRLSWMTAKPATRPQIDRCRSAGVDVGFVWQYGGADNPDTMRGRTGGHADATSAQAKLIELGCPHHPVFFAVDFDISLDQWNATAVHYFKAACEVLGRDRVGIYGHSRVISWAVEDQVIADLGGGKHLAWQTPAWSMGERATEAVLYQGAANVKGPAGINIDVNEVLHHEWGQHPVGETRLEKSQEMELAMKPNPNHRGDPLFLPDVLKAFGVKVQEWDGWRDRGHGDFTVIQGVFAHHTGTDKDIPGYIADHPELGLCSQIHLNRDGTAVIVGAGIAYHAGRGSYPGWPTDNANQVAIGIEAASSGTSPWPPAQLDAYYRTCAAILWYLGKPATPQTLLGHKEYSGAAQGKWDPGGIDMNDFRRNVQHYIDNPPFLAADAAHITKEEDPMIQSLINPAKKFAQSTLISIVDATCWQILVLAKAIAKKQGLDPDQILADAITADREGK” as the sequence, how does the “soluble on expression in E. coli” value read?
Answer: not soluble

Question: Which “soluble on expression in E. coli” value does the source give for “MGSDKIHHHHHHMATRSATQPVSPQVARLARGLKLGANSMLVTLFGDVVAPRPQALWLGSLIRLAEPFGINDRLVRTATFRLTSDDWLNATRIGRRSYYGLSEAGLQRCLHAGKRIYAGDAPDWDGRWTLALVRGDARATIRQRLKRELLWEGFGAIAPGVYAHPNADANSLGEIIRAAHAQDFVAVMDATSLETFSIRPLQTLMHQTFKLGDVASAWQALLRRFSPVLADAHAMTPADAFFVRTLLLHEYRRVLLRDPNLPEQLLPTDWPGRTARDLCRDMYAALLDASEDYLREVVEVSEGTLANATRLLRRRFAMA” here?
Answer: not soluble

Reference: the DeepSol protein solubility set
